In the Immune Epitope Database (IEDB):

Columns and labels:
HLA-B*40:02 = assay: IEDB peptide-MHC binding, cellular MHC/competitive/fluorescence; ≥ and ≤ were set here for values at or beyond the usual limits of such assays; settings: source organism: Homo sapiens
HLA-A*26:01 [1] = assay: IEDB peptide-MHC binding, purified MHC/direct/fluorescence; filed as Kd, often an IC50 or EC50 that approximates it; ≥ and ≤ were set here for values at or beyond the usual limits of such assays
HLA-B*57:01 [2] = assay: as above
HLA-B*58:01 = assay: as above
HLA-B*18:01 [3] = assay: as above
HLA-A*31:01 = assay: as above
HLA-A*01:01 [4] = assay: as above
HLA-B*27:05 [5] = assay: as above
HLA-B*15:09 = assay: as above; settings: source organism: Yersinia pestis CA88-4125
HLA-B*73:01 = assay: as above; settings: source organism: Yersinia pestis CA88-4125
HLA-B*15:42 = assay: IEDB peptide-MHC binding, purified MHC/competitive/fluorescence; filed as Kd, often an IC50 or EC50 that approximates it; ≥ and ≤ were set here for values at or beyond the usual limits of such assays; settings: source organism: Yersinia pestis KIM10+
HLA-B*83:01 = assay: as above; settings: source organism: Yersinia pestis KIM10+
HLA-C*06:02 = assay: as above; settings: source organism: Yersinia pestis KIM10+
HLA-A*11:01 [6] = assay: as above; settings: source organism: Yersinia pestis KIM10+
HLA-B*07:02 [7] = assay: as above
HLA-A*02:01 [8] = assay: as above; settings: source organism: Yersinia pestis KIM10+
HLA-A*30:01 = assay: as above
HLA-B*15:01 [9] = assay: as above
HLA-A*02:06 = assay: as above
HLA-B*27:20 = assay: as above; settings: source organism: Yersinia pestis KIM10+
HLA-B*39:01 = assay: as above; settings: source organism: Yersinia pestis KIM10+
HLA-A*02:03 = assay: as above; settings: source organism: Yersinia pestis KIM10+
HLA-B*45:06 = assay: as above; settings: source organism: Yersinia pestis KIM10+
HLA-A*68:02 [10] = assay: as above
HLA-A*03:01 = assay: IEDB peptide-MHC binding, purified MHC/direct/fluorescence; filed as Kd, often an IC50 or EC50 that approximates it; ≥ and ≤ were set here for values at or beyond the usual limits of such assays
HLA-A*26:02 [11] = assay: as above; settings: source organism: Vibrio cholerae V52
HLA-A*11:01 [12] = assay: as above
HLA-B*40:01 = assay: as above
HLA-B*46:01 = assay: as above; settings: source organism: Vibrio cholerae
HLA-B*07:02 [13] = assay: as above; settings: source organism: Vibrio cholerae
HLA-A*02:01 [14] = assay: as above
HLA-B*08:01 = assay: as above; settings: source organism: Vibrio cholerae V52
HLA-B*48:01 [15] = assay: as above; settings: source organism: Vibrio cholerae
HLA-B*15:01 [16] = assay: as above; settings: source organism: Vibrio cholerae
HLA-B*08:02 = assay: as above
HLA-A*68:02 [17] = assay: as above; settings: source organism: Vibrio cholerae
HLA-A*26:03 = assay: IEDB peptide-MHC binding, purified MHC/competitive/fluorescence; filed as Kd, often an IC50 or EC50 that approximates it; ≥ and ≤ were set here for values at or beyond the usual limits of such assays
HLA-B*15:17 = assay: as above
HLA-A*69:01 = assay: IEDB peptide-MHC binding, purified MHC/direct/fluorescence; filed as Kd, often an IC50 or EC50 that approximates it; ≥ and ≤ were set here for values at or beyond the usual limits of such assays; settings: source organism: Camelpox virus M-96
HLA-A*26:01 [18] = assay: IEDB peptide-MHC binding, purified MHC/competitive/fluorescence; filed as Kd, often an IC50 or EC50 that approximates it; ≥ and ≤ were set here for values at or beyond the usual limits of such assays; settings: source organism: Candida albicans SC5314
HLA-B*57:01 [19] = assay: as above; settings: source organism: Candida albicans SC5314
HLA-A*26:02 [20] = assay: as above; settings: source organism: Candida albicans SC5314
HLA-B*18:01 [21] = assay: as above; settings: source organism: Candida albicans SC5314
HLA-B*35:01 = assay: as above; settings: source organism: Candida albicans SC5314
HLA-A*01:01 [22] = assay: as above; settings: source organism: Candida albicans SC5314
HLA-B*48:01 [23] = assay: as above; settings: source organism: Candida albicans SC5314
HLA-B*27:05 [24] = assay: as above; settings: source organism: Candida albicans SC5314
[25] = source organism: Yersinia pestis
[26] = source organism: Yersinia pestis KIM10+
[27] = source organism: Vibrio cholerae V52
[28] = source organism: Vibrio cholerae
[29] = source organism: Vibrio cholerae 2740-80
[30] = source organism: Camelpox virus M-96
[31] = source organism: Candida albicans SC5314

Sequence: REASPSRLS
- IC50 (HLA-B*40:02): 1900 nM

Sequence: SRWAISHWL
- Kd (HLA-A*26:01 [1]; source organism: Yersinia pestis CA88-4125): ≥ 20 µM
- Kd (HLA-B*57:01 [2]; [25]): ≥ 20 µM
- Kd (HLA-B*58:01; [25]): ≥ 20 µM
- Kd (HLA-B*18:01 [3]; [25]): ≥ 20 µM
- Kd (HLA-A*31:01; [25]): ≥ 20 µM
- Kd (HLA-A*01:01 [4]; [25]): ≥ 20 µM
- Kd (HLA-B*27:05 [5]; [25]): 20.3 nM
- Kd (HLA-B*15:09): ≥ 20 µM
- Kd (HLA-B*73:01): 167 nM
- Kd (HLA-B*15:42): ≥ 5 µM
- Kd (HLA-B*83:01): ≥ 5 µM
- Kd (HLA-C*06:02): 82.2 nM
- Kd (HLA-A*11:01 [6]): ≥ 20 µM
- Kd (HLA-B*07:02 [7]; [26]): ≥ 20 µM
- Kd (HLA-A*02:01 [8]): 76.2 nM
- Kd (HLA-A*30:01; [26]): 2690 nM
- Kd (HLA-B*15:01 [9]; [26]): 1840 nM
- Kd (HLA-A*02:06; [26]): 8.6 nM
- Kd (HLA-B*27:20): 4.8 nM
- Kd (HLA-B*39:01): 36.3 nM
- Kd (HLA-A*02:03): 205 nM
- Kd (HLA-B*45:06): ≥ 5 µM
- Kd (HLA-A*68:02 [10]; [26]): ≥ 20 µM

Sequence: AADFPGIAR
- Kd (HLA-A*26:01 [1]; [27]): ≥ 20 µM
- Kd (HLA-A*03:01; [28]): 1000 nM
- Kd (HLA-B*57:01 [2]; [28]): ≥ 20 µM
- Kd (HLA-A*26:02 [11]): ≥ 20 µM
- Kd (HLA-A*11:01 [12]; [28]): 164 nM
- Kd (HLA-B*40:01; [28]): ≥ 20 µM
- Kd (HLA-B*58:01; [28]): ≥ 20 µM
- Kd (HLA-B*46:01): ≥ 20 µM
- Kd (HLA-B*07:02 [13]): ≥ 20 µM
- Kd (HLA-B*18:01 [3]; [28]): ≥ 20 µM
- Kd (HLA-A*02:01 [14]; [28]): ≥ 20 µM
- Kd (HLA-A*31:01; [28]): 6.3 µM
- Kd (HLA-B*08:01): ≥ 20 µM
- Kd (HLA-A*01:01 [4]; [28]): ≥ 20 µM
- Kd (HLA-B*48:01 [15]): ≥ 20 µM
- Kd (HLA-B*15:01 [16]): ≥ 20 µM
- Kd (HLA-B*27:05 [5]; [28]): ≥ 20000 nM
- Kd (HLA-B*08:02; [27]): ≥ 20 µM
- Kd (HLA-A*68:02 [17]): ≥ 20 µM
- Kd (HLA-A*26:03; [29]): ≥ 20 µM
- Kd (HLA-B*15:17; [29]): ≥ 20000 nM
- Kd (HLA-A*30:01; [29]): 2110 nM

Sequence: REFSKEPEL
- IC50 (HLA-B*40:02): 800 nM

Sequence: RVYNNTARY
- Kd (HLA-A*03:01; [30]): 50.7 nM
- Kd (HLA-A*11:01 [12]; [30]): 22.5 nM
- Kd (HLA-B*40:01; [30]): ≥ 20 µM
- Kd (HLA-B*58:01; [30]): 0.016 µM
- Kd (HLA-A*02:01 [14]; [30]): ≥ 20 µM
- Kd (HLA-A*31:01; [30]): 0.432 µM
- Kd (HLA-A*69:01): ≥ 20 µM
- Kd (HLA-B*08:02; source organism: Variola virus): ≥ 20 µM
- Kd (HLA-A*26:01 [18]): 76.8 nM
- Kd (HLA-B*57:01 [19]): 655 nM
- Kd (HLA-A*26:02 [20]): 528 nM
- Kd (HLA-A*26:03; [31]): ≥ 20 µM
- Kd (HLA-B*07:02 [7]; [31]): ≥ 20 µM
- Kd (HLA-B*18:01 [21]): ≥ 20 µM
- Kd (HLA-B*15:17; [31]): 1.5 nM
- Kd (HLA-B*35:01): 159 nM
- Kd (HLA-A*01:01 [22]): ≥ 20 µM
- Kd (HLA-B*48:01 [23]): ≥ 20 µM
- Kd (HLA-B*15:01 [9]; [31]): 187 nM
- Kd (HLA-B*27:05 [24]): ≥ 20 µM
- Kd (HLA-A*02:06; [31]): ≥ 20000 nM
- Kd (HLA-A*68:02 [10]; [31]): ≥ 20 µM
